Assay results from patent US10724034B2, “Genetic encoding of chemical post-translational modification for phage-displayed libraries” (THE GOVERNORS OF THE UNIVERSITY OF ALBERTA, priority 2014, dated 2020).
Ends that are not written are not given here. SA = 4-(aminooxymethyl)benzenesulfonamide joined by oxime ligation to the periodate-oxidised N-terminal serine; Gal = galactose; Rha = rhamnose

Tests used:
[1] = biological target: T1, human Galectin-3 protein (human, UniProt P17931 2-250, limits assumed); assay: ELISA-like competition with HRP-Lac on Galectin-3 coated plates; reference MeGal
T1 construct: also called Gal3
T1 sequence (P17931 2-250 limits assumed): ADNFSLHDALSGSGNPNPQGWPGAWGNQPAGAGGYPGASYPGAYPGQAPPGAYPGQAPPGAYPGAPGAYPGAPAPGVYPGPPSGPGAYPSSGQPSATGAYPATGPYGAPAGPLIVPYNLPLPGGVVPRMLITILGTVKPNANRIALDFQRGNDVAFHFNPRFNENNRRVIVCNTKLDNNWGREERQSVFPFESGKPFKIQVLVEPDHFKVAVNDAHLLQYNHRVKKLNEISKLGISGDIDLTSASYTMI

[2] = biological target: T1, human Galectin-3 protein; assay: ELISA-like competition with HRP-Lac on Galectin-3 coated plates; reference lactose
[3] = biological target: T1, human Galectin-3 protein; assay: competition ELISA: HRP-Lactose binding to plate-coated Galectin-3 [upper left panel]
In short: (§1)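 Half-maximal inhibitory concentrations came from competition curves in an ELISA-like assay in which test molecules competed against a lactose-conjugated horseradish peroxidase probe for human Galectin-3. The carbohydrate recognition domain of the protein was coated on polystyrene 96-well plates at 10 μg/ml, and less colour development meant competition.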

[4] = biological target: T1, human Galectin-3 protein; assay: ELISA-like competition with HRP-Lac on immobilised Galectin-3; reference MeGal
In short: (§2)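 Each value expresses inhibition as a fold difference relative to a known Galectin-3 reference ligand run alongside in the same assay. The ELISA-like assay used polystyrene 96-well plates coated at 10 μg/ml with the carbohydrate recognition domain of human Galectin-3. Test molecules competed with a bound lactose-conjugated horseradish peroxidase probe, and reduced colour development indicated competition.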

[5] = biological target: T1, human Galectin-3 protein; assay: ELISA-like competition with HRP-Lac on immobilised Galectin-3; reference lactose
In short: as §2

[6] = biological target: T1, human Galectin-3 protein; assay: ELISA-like competition with HRP-Lac on immobilised Galectin-3; reference Lacto-N-Tetraose
In short: as §2

[7] = biological target: T1, human Galectin-3 protein; assay: ELISA-like competition: inhibition of soluble HRP-Lactose binding to immobilised Galectin-3
In short: as §1

[8] = biological target: T1, human Galectin-3 protein; assay: competition ELISA: HRP-Lactose binding to plate-coated Galectin-3 [lower left panel]
In short: as §1

[9] = biological target: T1, human Galectin-3 protein; assay: competition ELISA: HRP-Lactose binding to plate-coated Galectin-3 [lower right panel]
In short: as §1

[10] = biological target: T1, human Galectin-3 protein; assay: competition ELISA: HRP-Lactose binding to plate-coated Galectin-3 [upper right panel]
In short: as §1

[11] = biological target: T2, Bovine carbonic anhydrase II (bovine, UniProt P00921 2-260); assay: ITC, replicate [row SA-TRPA, left panel]
T2 construct: Commercial protein; also called BCA
T2 sequence (P00921 2-260 limits assumed): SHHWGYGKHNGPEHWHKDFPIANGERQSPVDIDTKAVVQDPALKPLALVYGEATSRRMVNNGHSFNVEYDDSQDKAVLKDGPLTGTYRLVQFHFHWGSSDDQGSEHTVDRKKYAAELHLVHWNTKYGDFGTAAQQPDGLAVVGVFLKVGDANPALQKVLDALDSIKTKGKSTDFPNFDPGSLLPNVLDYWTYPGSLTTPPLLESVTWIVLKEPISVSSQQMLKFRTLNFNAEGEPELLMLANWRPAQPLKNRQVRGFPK

[12] = biological target: T2, Bovine carbonic anhydrase II; assay: ITC, replicate [row SA-TRPA, right panel]
Description: (§3) FIG. 9 provides additional replicates of raw ITC data of sulfonamide-peptide (SA-XXXX) binding to carbonic anhydrase. Raw data obtained for 30 injections of ligands (20-95 μM) into a solution of carbonic anhydrase (2.5-12 μM) at 4-min intervals and 30° C. is shown.

[13] = biological target: T2, Bovine carbonic anhydrase II; assay: ITC, replicate [row SA-TRPA, middle panel]
Description: as §3

[14] = biological target: T2, Bovine carbonic anhydrase II; assay: isothermal titration calorimetry; reference SA-GGGG
Description: as §3

[15] = biological target: T2, Bovine carbonic anhydrase II; assay: ITC, replicate [row SA-WIVP, right panel]
Description: as §3

[16] = biological target: T2, Bovine carbonic anhydrase II; assay: ITC, replicate [row SA-WIVP, middle panel]
Description: as §3

[17] = biological target: T2, Bovine carbonic anhydrase II; assay: isothermal titration calorimetry, 30 C, single binding site model; selected peptide SA-WIVP (SEQ ID NO:26)
Description: as §3

[18] = biological target: T2, Bovine carbonic anhydrase II; assay: ITC, replicate [row SA-GGGG, right panel]
[19] = biological target: T2, Bovine carbonic anhydrase II; assay: ITC, replicate [row SA-GGGG, middle panel]
Description: as §3

[20] = biological target: T2, Bovine carbonic anhydrase II; assay: isothermal titration calorimetry, 30 C, single binding site model; control peptide SA-GGGG (SEQ ID NO:101)
Description: as §3

Rha-IWVR (rhamnose-peptide conjugate)
fold more potent inhibitor than MeGal [1]: 400 fold | fold better than Lactose control [2]: 10 fold

Rha-PQLP (not fully specified; printed as Rha-PQLP) [Rha-PQLP]
IC50 (read off the curve) [3]: ~1000 µM

B1: Gal-PAPT (galactose-modified glycopeptide) (peptide)
peptide: Gal-PAPT
modifications: also: exact galactose derivative not given here
notes: Synthetic glycan-peptide conjugate; also called glycopeptide Gal-PAPT
fold better inhibition than MeGal [4]: > 1500 fold | fold better inhibition than Lactose [5]: 30 fold | fold better inhibition than LNT [6]: 5 fold | EC50 [7]: 14 µM | IC50 (read off the curve) [8]: ~20 µM | IC50 (read off the curve) [9]: ~20 µM | IC50 (read off the curve) [10]: ~20 µM

{SA}-TRPA-NH2 (also: N-terminal SA cap oxime-linked, made from oxidised N-terminal Ser) [SA-TRPA]
Kd [11]: 0.033 µM | Kd [12]: 0.038 µM | Kd [13]: 0.031 µM

B2: SA-WIVP (sulfonamide-modified peptide) (peptide)
peptide: {SA}-WIVP-NH2
modifications: also: N-terminal SA cap oxime-linked, made from oxidised N-terminal Ser
notes: Synthetic conjugate made from the peptide S-WIVP; The N-terminal Ser is turned into the oxime-linked sulfonamide; also called sulfonamide-peptide; SA-XXXX
fold stronger affinity than control peptide SA-GGGG [14]: 30 fold | Kd [15]: 0.006 µM | Kd [16]: 0.009 µM | Kd [17]: 0.005 µM

B3: SA-GGGG (control sulfonamide-modified peptide) (peptide)
peptide: {SA}-GGGG-NH2
modifications: also: N-terminal SA cap oxime-linked, made from oxidised N-terminal Ser
notes: Control peptide in ITC; also called control peptide SA-GGGG
Kd [18]: 0.14 µM | Kd [19]: 0.13 µM | Kd [20]: 0.15 µM
